Measurements from article PMC6497955, “Development and structural characterization of an engineered multi-copper oxidase reporter of protein–protein interactions” (The Journal of Biological Chemistry, 2019).

Substrate: COc1cc(C=NN=Cc2cc(OC)c(O)c(OC)c2)cc(OC)c1O
Experiment: purified protein
Assay type: biochemical, Escherichia coli
Settings: 50 mM acetate pH 5.2, 0.33 mM copper, room temperature
[1] = CueO-12.1, graft PRFMDYWEGLN (from primers; residues 384–394 replaced)
[2] = CueO-12.1CON, graft PRAMDYAEGAN (from primers)
[3] = CueO-HA, HA epitope graft TSYPYDVPDYA (from primers), no antibody
[4] = CueO-PM2, graft TSFAEYWALLS (from primers), no MDM2

B1: CueO (Escherichia coli K-12; G386R/G389D/G391W/H387F/H390Y/H395N/M358I/M385P/M393G/N392E/N394L) (protein)
chain: AERPTLPIPDLLTTDARNRIQLTIGAGQSTFGGKTATTWGYNGNLLGPAVKLQRGKAVTVDIYNQLTEETTLHWHGLEVPGEVDGGPQGIIPPGGKRSVTLNVDQPAATCWFHPHQHGKTGRQVAMGLAGLVVIEDDEILKLMLPKQWGIDDVPVIVQDKKFSADGQIDYQLDVMTAAVGWFGDTLLTNGAIYPQHAAPRGWLRLRLLNGCNARSLNFATSDNRPLYVIASDGGLLPEPVKVSELPVLMGERFEVLVEVNDNKPFDLVTLPVSQMGMAIAPFDKPHPVMRIQPIAISASGALPDTLSSLPALPSLEGLTVRKLQLSMDPILDMMGMQMLMEKYGDQAMAGMDHSQMPRFMDYWEGLNMNHGGKFDFHHANKINGQAFDMNKPMFAAAKGQYERWVISGVGDMMLHPFHIHGTQFRILSENGKPPAAHRAGWKDTVKVEGNVSEVLVKFNHDAPKEHAYMAHCHLLEHEDTGMMLGFTV
notes: C-terminal His6 tag, pET22b, full-length gene cloned, expressed in E. coli BL21(DE3); crystal models start at residue 29/30; given PDB entries are of the CueO-12.1 and CueO-PM2 variants
Km [1]: 290.65 ± 44.33 µM | kcat [1]: 1.03 ± 0.0613 s⁻¹ | kcat/Km [1]: 3500 M⁻¹ s⁻¹

B2: CueO (Escherichia coli K-12; G386R/G389D/G391A/H387A/H390Y/H395N/M358I/M385P/M393G/N392E/N394A) (protein)
chain: AERPTLPIPDLLTTDARNRIQLTIGAGQSTFGGKTATTWGYNGNLLGPAVKLQRGKAVTVDIYNQLTEETTLHWHGLEVPGEVDGGPQGIIPPGGKRSVTLNVDQPAATCWFHPHQHGKTGRQVAMGLAGLVVIEDDEILKLMLPKQWGIDDVPVIVQDKKFSADGQIDYQLDVMTAAVGWFGDTLLTNGAIYPQHAAPRGWLRLRLLNGCNARSLNFATSDNRPLYVIASDGGLLPEPVKVSELPVLMGERFEVLVEVNDNKPFDLVTLPVSQMGMAIAPFDKPHPVMRIQPIAISASGALPDTLSSLPALPSLEGLTVRKLQLSMDPILDMMGMQMLMEKYGDQAMAGMDHSQMPRAMDYAEGANMNHGGKFDFHHANKINGQAFDMNKPMFAAAKGQYERWVISGVGDMMLHPFHIHGTQFRILSENGKPPAAHRAGWKDTVKVEGNVSEVLVKFNHDAPKEHAYMAHCHLLEHEDTGMMLGFTV
notes: as for B1
Km [2]: 234.51 ± 41.99 µM | kcat [2]: 1.61 ± 0.238 s⁻¹ | kcat/Km [2]: 6830 M⁻¹ s⁻¹

B3: CueO (Escherichia coli K-12) (protein)
chain: AERPTLPIPDLLTTDARNRIQLTIGAGQSTFGGKTATTWGYNGNLLGPAVKLQRGKAVTVDIYNQLTEETTLHWHGLEVPGEVDGGPQGIIPPGGKRSVTLNVDQPAATCWFHPHQHGKTGRQVAMGLAGLVVIEDDEILKLMLPKQWGIDDVPVIVQDKKFSADGQIDYQLDVMTAAVGWFGDTLLTNGAIYPQHAAPRGWLRLRLLNGCNARSLNFATSDNRPLYVIASDGGLLPEPVKVSELPVLMGERFEVLVEVNDNKPFDLVTLPVSQMGMAIAPFDKPHPVMRIQPIAISASGALPDTLSSLPALPSLEGLTVRKLQLSMDPMLDMMGMQMLMEKYGDQAMAGMDHSQMMGHMGHGNMNHMNHGGKFDFHHANKINGQAFDMNKPMFAAAKGQYERWVISGVGDMMLHPFHIHGTQFRILSENGKPPAAHRAGWKDTVKVEGNVSEVLVKFNHDAPKEHAYMAHCHLLEHEDTGMMLGFTV
notes: as for B1
Km (CueO-WT (358 reverted to Met)): 293.18 ± 23.08 µM | kcat (CueO-WT (358 reverted to Met)): 2.52 ± 0.136 s⁻¹ | kcat/Km (CueO-WT (358 reverted to Met)): 8670 M⁻¹ s⁻¹

B4: CueO (Escherichia coli K-12; M358I) (protein)
chain: AERPTLPIPDLLTTDARNRIQLTIGAGQSTFGGKTATTWGYNGNLLGPAVKLQRGKAVTVDIYNQLTEETTLHWHGLEVPGEVDGGPQGIIPPGGKRSVTLNVDQPAATCWFHPHQHGKTGRQVAMGLAGLVVIEDDEILKLMLPKQWGIDDVPVIVQDKKFSADGQIDYQLDVMTAAVGWFGDTLLTNGAIYPQHAAPRGWLRLRLLNGCNARSLNFATSDNRPLYVIASDGGLLPEPVKVSELPVLMGERFEVLVEVNDNKPFDLVTLPVSQMGMAIAPFDKPHPVMRIQPIAISASGALPDTLSSLPALPSLEGLTVRKLQLSMDPILDMMGMQMLMEKYGDQAMAGMDHSQMMGHMGHGNMNHMNHGGKFDFHHANKINGQAFDMNKPMFAAAKGQYERWVISGVGDMMLHPFHIHGTQFRILSENGKPPAAHRAGWKDTVKVEGNVSEVLVKFNHDAPKEHAYMAHCHLLEHEDTGMMLGFTV
notes: as for B1
Km: 256.09 ± 9.59 µM | kcat: 2.24 ± 0.19 s⁻¹ | kcat/Km: 8830 M⁻¹ s⁻¹

B5: CueO (Escherichia coli K-12; G386S/G389Y/G391V/H387Y/H390D/H395A/M358I/M385T/M388P/M393D/N392P/N394Y) (protein)
chain: AERPTLPIPDLLTTDARNRIQLTIGAGQSTFGGKTATTWGYNGNLLGPAVKLQRGKAVTVDIYNQLTEETTLHWHGLEVPGEVDGGPQGIIPPGGKRSVTLNVDQPAATCWFHPHQHGKTGRQVAMGLAGLVVIEDDEILKLMLPKQWGIDDVPVIVQDKKFSADGQIDYQLDVMTAAVGWFGDTLLTNGAIYPQHAAPRGWLRLRLLNGCNARSLNFATSDNRPLYVIASDGGLLPEPVKVSELPVLMGERFEVLVEVNDNKPFDLVTLPVSQMGMAIAPFDKPHPVMRIQPIAISASGALPDTLSSLPALPSLEGLTVRKLQLSMDPILDMMGMQMLMEKYGDQAMAGMDHSQMTSYPYDVPDYAMNHGGKFDFHHANKINGQAFDMNKPMFAAAKGQYERWVISGVGDMMLHPFHIHGTQFRILSENGKPPAAHRAGWKDTVKVEGNVSEVLVKFNHDAPKEHAYMAHCHLLEHEDTGMMLGFTV
notes: as for B1
Km [3]: 286.06 ± 22.89 µM | kcat [3]: 1.49 ± 0.151 s⁻¹ | kcat/Km [3]: 5170 M⁻¹ s⁻¹

B6: CueO (Escherichia coli K-12; G386S/G389E/G391W/H387F/H390Y/H395S/M358I/M385T/M388A/M393L/N392A/N394L) (protein)
chain: AERPTLPIPDLLTTDARNRIQLTIGAGQSTFGGKTATTWGYNGNLLGPAVKLQRGKAVTVDIYNQLTEETTLHWHGLEVPGEVDGGPQGIIPPGGKRSVTLNVDQPAATCWFHPHQHGKTGRQVAMGLAGLVVIEDDEILKLMLPKQWGIDDVPVIVQDKKFSADGQIDYQLDVMTAAVGWFGDTLLTNGAIYPQHAAPRGWLRLRLLNGCNARSLNFATSDNRPLYVIASDGGLLPEPVKVSELPVLMGERFEVLVEVNDNKPFDLVTLPVSQMGMAIAPFDKPHPVMRIQPIAISASGALPDTLSSLPALPSLEGLTVRKLQLSMDPILDMMGMQMLMEKYGDQAMAGMDHSQMTSFAEYWALLSMNHGGKFDFHHANKINGQAFDMNKPMFAAAKGQYERWVISGVGDMMLHPFHIHGTQFRILSENGKPPAAHRAGWKDTVKVEGNVSEVLVKFNHDAPKEHAYMAHCHLLEHEDTGMMLGFTV
notes: as for B1
Km [4]: 284.77 ± 25.50 µM | kcat [4]: 0.811 ± 0.0288 s⁻¹ | kcat/Km [4]: 2830 M⁻¹ s⁻¹
